According to patent US20110294738A1, “PTHR1 RECEPTOR COMPOUNDS” (priority 2008, published 2011):
* marks the point of attachment. Palmitoyl = CCCCCCCCCCCCCCCC(=O)*

How the values were obtained:
PTHR1 [1] = biological target: T1, PTHR1 (Rattus norvegicus, UniProt P25961); test: cAMP screening assay using DiscoveRX XS+ kit (PTH1-34 dose-response in UMR-106 cells); details: compound 10 μM, PTH1-34 stimulated maximal response, 1−(Emax compound/Emax vehicle)
T1 sequence (P25961 27-591): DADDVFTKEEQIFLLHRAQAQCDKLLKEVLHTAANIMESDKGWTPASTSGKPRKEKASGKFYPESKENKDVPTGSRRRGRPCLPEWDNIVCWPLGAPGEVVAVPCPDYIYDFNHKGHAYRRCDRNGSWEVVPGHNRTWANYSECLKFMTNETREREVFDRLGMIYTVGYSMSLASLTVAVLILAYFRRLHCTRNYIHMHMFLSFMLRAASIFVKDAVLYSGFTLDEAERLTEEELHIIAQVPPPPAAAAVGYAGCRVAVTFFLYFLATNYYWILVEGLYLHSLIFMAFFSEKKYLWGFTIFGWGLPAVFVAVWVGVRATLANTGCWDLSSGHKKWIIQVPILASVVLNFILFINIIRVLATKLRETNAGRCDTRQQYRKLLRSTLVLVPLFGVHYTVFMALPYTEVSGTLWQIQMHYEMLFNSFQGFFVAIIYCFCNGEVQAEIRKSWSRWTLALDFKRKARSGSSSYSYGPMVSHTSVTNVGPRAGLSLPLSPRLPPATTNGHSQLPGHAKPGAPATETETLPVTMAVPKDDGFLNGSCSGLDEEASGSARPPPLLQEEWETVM

PTHR1 [2] = biological target: T1, PTHR1

Substance: TNAGRSDTRQQYRKLLA [Compound 87]
- Inhibition of Maximal Response (PTHR1 [1]): 8.00%
- Fold Shift of EC50 (PTHR1 [2]): 4.1

Substance: NIVRVLATKLRETNAGR [Compound 54]
- Inhibition of Maximal Response (PTHR1 [1]): 17.50%
- Fold Shift of EC50 (PTHR1 [2]): 0.7

Substance: SWSRWTLALDFKRKAR [Compound 102]
- Inhibition of Maximal Response (PTHR1 [1]): −25.40%
- Fold Shift of EC50 (PTHR1 [2]): 1

Substance: TNAGRSDTRQQYRKLLFA [Compound 86]
- Inhibition of Maximal Response (PTHR1 [1]): 5.20%
- Fold Shift of EC50 (PTHR1 [2]): 3.6

Substance: LAYFRRLHSTRNYI [Compound 9]
- Inhibition of Maximal Response (PTHR1 [1]): 12.70%
- Fold Shift of EC50 (PTHR1 [2]): 1.1

Substance: NIVRVLATKLRE [Compound 55]
- Inhibition of Maximal Response (PTHR1 [1]): 26.10%
- Fold Shift of EC50 (PTHR1 [2]): 0.6

Substance: SGRVLATKLRET [Compound 72]
- Inhibition of Maximal Response (PTHR1 [1]): 22.30%
- Fold Shift of EC50 (PTHR1 [2]): 0.7

Substance: RETNAGRSDTRQQYRKLL [Compound 59]
- Inhibition of Maximal Response (PTHR1 [1]): 3.00%
- Fold Shift of EC50 (PTHR1 [2]): 5.2

Substance: GSEKKYLWG [Compound 43]
- Inhibition of Maximal Response (PTHR1 [1]): 5.70%
- Fold Shift of EC50 (PTHR1 [2]): 1.4

Substance: LAYFRRLHSTRNYIH [Compound 5]
- Inhibition of Maximal Response (PTHR1 [1]): 13.00%
- Fold Shift of EC50 (PTHR1 [2]): 1

Substance: TNAGRSDTRQQYRKLLKSTL [Compound 52]
- Inhibition of Maximal Response (PTHR1 [1]): 1.70%
- Fold Shift of EC50 (PTHR1 [2]): 11.1

Substance: TNAGRSDTRQQYRKLLF [Compound 83]
- Inhibition of Maximal Response (PTHR1 [1]): −5.80%
- Fold Shift of EC50 (PTHR1 [2]): 7

Substance: SGRVLATKLRETNA [Compound 73]
- Inhibition of Maximal Response (PTHR1 [1]): 32.30%
- Fold Shift of EC50 (PTHR1 [2]): 0.8

Substance: NGEVQAEIKKSWSR [Compound 100]
- Inhibition of Maximal Response (PTHR1 [1]): 26.80%
- Fold Shift of EC50 (PTHR1 [2]): 1.8

Substance: VLATKLRETNAGRSDTRQQ [Compound 46]
- Inhibition of Maximal Response (PTHR1 [1]): 20.30%
- Fold Shift of EC50 (PTHR1 [2]): 0.9

Substance: LAYFRRLHSTRNYIHMH [Compound 10]
- Inhibition of Maximal Response (PTHR1 [1]): 24.10%
- Fold Shift of EC50 (PTHR1 [2]): 1.1

Substance: RETNAGRSDTRQQYRK [Compound 60]
- Inhibition of Maximal Response (PTHR1 [1]): 4.30%
- Fold Shift of EC50 (PTHR1 [2]): 3.3

Substance: RETNAGRSDTRQQRKLLKS [Compound 48]
- Inhibition of Maximal Response (PTHR1 [1]): −3.30%
- Fold Shift of EC50 (PTHR1 [2]): 7

Substance: Pal-GSEKKYLWGFTVF-amide (Palmitoyl-GSEKKYLWGFTVF-NH2; SMILES CCCCCCCCCCCCCCCC(=O)NCC(=O)N[C@@H](CO)C(=O)N[C@@H](CCC(=O)O)C(=O)N[C@@H](CCCCN)C(=O)N[C@@H](CCCCN)C(=O)N[C@@H](Cc1ccc(O)cc1)C(=O)N[C@@H](CC(C)C)C(=O)N[C@@H](Cc1c[nH]c2ccccc12)C(=O)NCC(=O)N[C@@H](Cc1ccccc1)C(=O)N[C@H](C(=O)N[C@H](C(=O)N[C@@H](Cc1ccccc1)C(N)=O)C(C)C)[C@@H](C)O) [Compound 41]
- Inhibition of Maximal Response (PTHR1 [1]): 17.70%
- Fold Shift of EC50 (PTHR1 [2]): 0.9

Substance: LYLHSLIFMAFFSEKKYL [Compound 39]
- Inhibition of Maximal Response (PTHR1 [1]): 29.30%
- Fold Shift of EC50 (PTHR1 [2]): 1.3

Substance: LYLHSLIFMAFFSEKKYLWG [Compound 38]
- Inhibition of Maximal Response (PTHR1 [1]): 21.90%
- Fold Shift of EC50 (PTHR1 [2]): 1.1

Substance: RETNAGRSDTRQQYRF [Compound 61]
- Inhibition of Maximal Response (PTHR1 [1]): −47.60%
- Fold Shift of EC50 (PTHR1 [2]): 0.7

Substance: KLRETNAGRSDTRQQRKLL [Compound 47]
- Inhibition of Maximal Response (PTHR1 [1]): 8.30%
- Fold Shift of EC50 (PTHR1 [2]): 2.7

Substance: TNAGRSDTRQQYRKLLK [Compound 84]
- Inhibition of Maximal Response (PTHR1 [1]): −25.20%
- Fold Shift of EC50 (PTHR1 [2]): 9.1
